In patent US20090226456A1 (published 2009):

B1: Soluble human FLAG-FasL (synthesized at HGS) (ligand)
chain: DYKDDDDKQIGHPSPPPEKKELRKVAHLTGKSNSRSMPLEWEDTYGIVLLSGVKYKKGGLVINETGLYFVYSKVYFRGQSCNNLPLSHKVYMRNSKYPQDLVMMEGKMMSYCTTGQMWARSSYLGAVFNLTSADHLYVNVSELSLVNFEESQTFFGLYKL
notes: Called trimerized in the BIAcore experiment; cross-linked with anti-FLAG antibody in the cell assays; also called FasL-Flag; trimerized FLAG-FasL
B2: Full-length human TR6 (without Fc) (receptor)
chain: VAETPTYPWRDAETGERLVCAQCPPGTFVQRPCRRDSPTTCGPCPPRHYTQFWNYLERCRYCNVLCGEREEEARACHATHNRACRCRTGFFAHAGFCLEHASCPPGAGVIAPGTPSQNTQCQPCPPGTFSASSSSSEQCQPHRNCTALGLALNVPGSSSHDTLCTSCTGFPLSTRVPGAEECERAVIDFVAFQDISIKRLQRLLQALEAPEGWGPTPRAGRAALQLKLRRRLTELLGAQDGALLVRLLQALRVARMPGLERSVRERFLPVH
notes: also called TR6-non-Fc; TR6 non-Fc
B3: BCMA on transiently transfected cells (receptor, UniProt Q02223 1-184, looked up)
chain: MLQMAGQCSQNEYFDSLLHACIPCQLRCSSNTPPLTCQRYCNASVTNSVKGTNAILWTCLGLSLIISLAVFVLMFLLRKINSEPLKDEFKNTGSGLLGMANIDLEKSRTGDEIILPRGLEYTVEECTCEDCIKSKPKVDSDHCFPLPAMEEGATILVTTKTNDYCKSLPAALSATEIEKSISAR
notes: whole, on cells
B4: TR2-Fc (extracellular domain of TR2, aa 1-192, fused to the Fc domain of human IgG1) (Fc fusion)
chain: LPSCKEDEYPVGSECCPKCSPGYRVKEACGELTGTVCEPCPPGTYIAHLNGLSKCLQCQMCDPAMGLRASRNCSRTENAVCGCSPGHFCIVQDGDHCAACRAYATSSPGQRVQKGGTESQDTLCQNCPPGTFSPNGTLEECQHQTKCSWLVTKA
notes: The range is as cloned; also called HveA-Fc; HveA; not shown: Fc domain of human IgG1

Experiments:
[1] = target: T1, Fas receptor on Jurkat or HT-29 cells (human, UniProt P25445 26-335); assay: cell-based or functional assay
T1 sequence (looked up): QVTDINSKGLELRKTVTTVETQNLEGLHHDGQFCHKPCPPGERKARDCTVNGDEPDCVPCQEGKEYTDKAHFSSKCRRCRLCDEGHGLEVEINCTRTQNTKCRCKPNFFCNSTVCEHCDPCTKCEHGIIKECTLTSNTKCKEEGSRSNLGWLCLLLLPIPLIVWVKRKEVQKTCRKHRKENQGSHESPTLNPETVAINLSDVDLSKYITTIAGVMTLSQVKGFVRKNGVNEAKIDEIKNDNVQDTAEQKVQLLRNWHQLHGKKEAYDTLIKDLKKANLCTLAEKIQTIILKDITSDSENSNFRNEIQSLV

[2] = target: T2, TNFR6 alpha-Fc (full length TNFR-6 alpha, amino acids 1-300 of SEQ ID NO:2, fused to an Fc domain) (human, UniProt O95407 30-300); assay: BIAcore, TR6-Fc immobilized, trimerized FLAG-FasL soluble
T2 construct: Cloned as aa 1-300; disulfide-linked dimer; also called TR6-Fc; TNFR6-Fc; not shown: Fc domain of human IgG1
T2 sequence: B2 chain

[3] = target: B2; assay: BIAcore, FasL-Flag soluble
[4] = target: T3, full length TNF-gamma-beta on the cell surface of transfected cells (human, UniProt O95150 1-251); assay: flow cytometry competition; competitor DR3-Fc
T3 construct: whole, on cells; also called TNF-gamma-beta expressing cells
T3 sequence (looked up): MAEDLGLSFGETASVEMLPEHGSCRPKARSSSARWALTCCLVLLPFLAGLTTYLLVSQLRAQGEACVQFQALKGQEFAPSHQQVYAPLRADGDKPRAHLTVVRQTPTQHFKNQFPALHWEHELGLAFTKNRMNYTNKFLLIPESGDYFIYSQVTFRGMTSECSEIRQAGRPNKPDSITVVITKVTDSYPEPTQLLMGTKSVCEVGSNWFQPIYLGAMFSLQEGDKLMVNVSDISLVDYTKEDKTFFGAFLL
Description: (§1) One million cells, in 0.1 ml of FACS buffer (PBS, 0.1% BSA, 0.1% NaN₃), were incubated with 0.1-1 microgram of protein or antibody at RT for 15 min. The cells were washed with 3 ml of FACS buffer, reacted with biotinylated primary antibody, and stained with PE-conjugated secondary antibody at RT for 15 min. Cells were then washed again, resuspended in 0.5 microgram/ml of propidium iodide, and live cells were gated and analyzed on a FACScan using the CellQuest software (BD Biosciences).

[5] = target: T4, FLAG-tagged soluble TNF-gamma-beta (aa 72-251) (human, UniProt O95150 72-251); assay: flow cytometry on transiently transfected cells
T4 construct: also called FLAG-TNF-gamma-beta; FLAG-TL1β
T4 sequence: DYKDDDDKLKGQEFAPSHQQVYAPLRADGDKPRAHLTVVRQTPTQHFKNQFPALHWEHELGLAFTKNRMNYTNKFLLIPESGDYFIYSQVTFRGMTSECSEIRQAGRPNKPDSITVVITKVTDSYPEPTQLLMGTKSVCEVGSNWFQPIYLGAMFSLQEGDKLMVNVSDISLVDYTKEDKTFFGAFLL
Description: as §1

[6] = target: T3, full length TNF-gamma-beta on the cell …; assay: flow cytometry, receptor-Fc on HEK293F cells expressing full length TNF-gamma-beta
Description: as §1

## sFas ligand (Alexis Corporation) with a FLAG epitope tag at its N-terminus (from UniProt P48023 103-281)
[1]
  % Cells undergoing apoptosis (annexin/propidium iodide FACS, Jurkat cells), FasL (20 ng) alone (% cells undergoing apoptosis): 8.87
  Jurkat cell viability (ALOMAR blue, OD 570 nm-630 nm) (% decrease in cell viability): 50

## B1
[2]
  Kd: 4.6 nM
[1]
  Jurkat apoptosis (annexin staining, FACS): ~7 fold
[3]
  Kd: 17 nM

## B2
[4]
  molar ratio of TR6 to DR3-Fc at which no DR3-Fc binding was detected: 2 molar ratio (2:1)

## B3
[5]
  binding result: no binding

## B4
[6]
  binding result: no binding
